Results on 21 molecules are retold here after patent US20250114463A1, “LIVER-TARGETED DRUG AND USE THEREOF” (HANMI PHARM. CO., LTD., priority 2021, published 2025).

Bridges are numbered along the chain shown (N, C = ends). Where no end group is shown, it is not given here. [ ]: non-standard residue; d: D form. The star is where a group is joined. Acetyl(2-(4-imidazolyl)) = O=C(Cc1c[nH]cn1)*; Aib = CC(C)(N)C(=O)O

What all share (test): cell-based or functional assay
One experiment has as its target human GLP-1 receptor (human, UniProt P43220 24-463).
The target in a further experiment is T1, human GIP receptor (human, UniProt P48546 22-466).
T1 sequence (looked up): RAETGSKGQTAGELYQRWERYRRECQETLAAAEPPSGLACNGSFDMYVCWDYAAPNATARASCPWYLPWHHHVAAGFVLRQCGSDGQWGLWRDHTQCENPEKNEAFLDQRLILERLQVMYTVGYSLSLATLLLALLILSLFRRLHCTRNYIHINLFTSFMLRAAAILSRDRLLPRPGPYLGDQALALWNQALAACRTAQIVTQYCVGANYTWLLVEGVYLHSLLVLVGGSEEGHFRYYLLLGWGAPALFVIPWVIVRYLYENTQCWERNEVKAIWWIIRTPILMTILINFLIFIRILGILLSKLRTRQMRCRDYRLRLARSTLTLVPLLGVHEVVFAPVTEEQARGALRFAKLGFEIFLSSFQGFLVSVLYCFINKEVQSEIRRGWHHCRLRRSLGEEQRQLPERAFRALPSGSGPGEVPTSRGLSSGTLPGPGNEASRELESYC

In another experiment the target is human GCG receptor (human, UniProt P47871 26-477).
human GCG receptor, sequence (P47871 26-477): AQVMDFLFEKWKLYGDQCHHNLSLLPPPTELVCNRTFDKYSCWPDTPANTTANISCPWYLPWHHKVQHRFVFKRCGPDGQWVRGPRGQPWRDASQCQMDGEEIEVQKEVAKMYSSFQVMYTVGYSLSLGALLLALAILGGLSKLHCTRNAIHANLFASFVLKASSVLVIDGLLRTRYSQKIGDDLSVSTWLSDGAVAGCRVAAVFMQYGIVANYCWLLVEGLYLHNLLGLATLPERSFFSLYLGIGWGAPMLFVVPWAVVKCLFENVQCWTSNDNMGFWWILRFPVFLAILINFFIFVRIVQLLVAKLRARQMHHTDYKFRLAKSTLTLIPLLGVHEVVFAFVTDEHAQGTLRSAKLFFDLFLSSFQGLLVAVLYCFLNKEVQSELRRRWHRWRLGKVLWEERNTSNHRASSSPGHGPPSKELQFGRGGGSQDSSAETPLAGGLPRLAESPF

Turning to [Acetyl(2-(4-imidazolyl))][Aib]QGTFTSDYSIAMDEIACKDFVNWLLNTK (bridge 16-20; not fully specified (C-terminus)) [triple agonist of SEQ ID NO: 61], the “in vitro Activity Compared to Native Peptide (%), vs GLP-1” value with human GLP-1 receptor was determined as 59.8%. Further, the “in vitro Activity Compared to Native Peptide (%), vs GIP” value in the experiment with human GIP receptor was found to be 2.8%. Besides, the “in vitro Activity Compared to Native Peptide (%), vs Glucagon” value with human GCG receptor was less than 0.1%.
On to H[Aib]QGTFTSDYSKYLDEKRQKEFVQWLLNTKC (bridge 16-20; not fully specified (C-terminus)) [triple agonist of SEQ ID NO: 58], for which, in the experiment with human GLP-1 receptor, the “in vitro Activity Compared to Native Peptide (%), vs GLP-1” value is 39.1%. The “in vitro Activity Compared to Native Peptide (%), vs GIP” value with human GIP receptor was found to be 0.2%. Also, in the experiment with human GCG receptor, the “in vitro Activity Compared to Native Peptide (%), vs Glucagon” value is 2.6%.
The corresponding values for [Acetyl(2-(4-imidazolyl))][Aib]QGTFTSDKSKYLDERAAQDFVQWLLDGGPSSGAPPPS (not fully specified (C-terminus)) [triple agonist of SEQ ID NO: 62] are 5.2%, less than 0.1% and less than 0.1%.
The like results for H[Aib]QGTFTSDVSKYLDGQAAKEFVAWLLKGC (not fully specified (C-terminus)) [triple agonist of SEQ ID NO: 7] were, in that order, 13.7%, less than 0.1% and less than 0.1%.
Take H[Aib]EGTFTSDYSIAMDEIHQKDFVDWLLAEC (bridge 16-20; not fully specified (C-terminus)) [triple agonist of SEQ ID NO: 54]: the “in vitro Activity Compared to Native Peptide (%), vs GLP-1” value with human GLP-1 receptor was 30.6%. Also, the “in vitro Activity Compared to Native Peptide (%), vs GIP” value in the experiment with human GIP receptor is 0.1%. In addition, the “in vitro Activity Compared to Native Peptide (%), vs Glucagon” value in the experiment with human GCG receptor worked out at 1.4%.
For Y[Aib]QGTFTSDYSKYLDECRAKDFVQWLLDHHPSSGQPPPS (bridge 16-20; not fully specified (C-terminus)) [triple agonist of SEQ ID NO: 66], in the experiment with human GLP-1 receptor, the “in vitro Activity Compared to Native Peptide (%), vs GLP-1” value was found to be 15.8%. Also, in the experiment with human GIP receptor, the “in vitro Activity Compared to Native Peptide (%), vs GIP” value worked out at 17.2%. Besides, the “in vitro Activity Compared to Native Peptide (%), vs Glucagon” value with human GCG receptor is 172%.
Turning to Y[Aib]QGTFTSDYSKCLDEKAAKEFVQWLLDHHPSSGQPPPS (bridge 16-20; not fully specified (C-terminus)) [triple agonist of SEQ ID NO: 68], in the experiment with human GLP-1 receptor, the “in vitro Activity Compared to Native Peptide (%), vs GLP-1” value came to 27.9%. In addition, the “in vitro Activity Compared to Native Peptide (%), vs GIP” value with human GIP receptor was found to be 107%. In addition, the “in vitro Activity Compared to Native Peptide (%), vs Glucagon” value in the experiment with human GCG receptor came out at 8.8%.
Regarding H[Aib]QGTFTSDYSKCLDEKRAKEFVQWLLDHHPSSGQPPPS (bridge 16-20; not fully specified (C-terminus)) [triple agonist of SEQ ID NO: 65], in the experiment with human GLP-1 receptor, the “in vitro Activity Compared to Native Peptide (%), vs GLP-1” value is 95.4%. Also, the “in vitro Activity Compared to Native Peptide (%), vs GIP” value with human GIP receptor came out at 11.6%. Besides, the “in vitro Activity Compared to Native Peptide (%), vs Glucagon” value in the experiment with human GCG receptor was 25.2%.
For H[Aib]QGTFTSDYSKYLDEKRQKEFVQWLLDTC (bridge 16-20; not fully specified (C-terminus)) [triple agonist of SEQ ID NO: 52], in the experiment with human GLP-1 receptor, the “in vitro Activity Compared to Native Peptide (%), vs GLP-1” value amounted to 44.1%. Further, the “in vitro Activity Compared to Native Peptide (%), vs GIP” value in the experiment with human GIP receptor was 0.3%. Besides, in the experiment with human GCG receptor, the “in vitro Activity Compared to Native Peptide (%), vs Glucagon” value was 7.5%.
In the case of Y[Aib]QGTFTSDYSKCLDEKRAKDFVQWLLDHHPSSGQPPPS (bridge 16-20; not fully specified (C-terminus)) [triple agonist of SEQ ID NO: 70], in the experiment with human GLP-1 receptor, the “in vitro Activity Compared to Native Peptide (%), vs GLP-1” value was 15.1%. Also, the “in vitro Activity Compared to Native Peptide (%), vs GIP” value with human GIP receptor was determined as 64.4%. In addition, in the experiment with human GCG receptor, the “in vitro Activity Compared to Native Peptide (%), vs Glucagon” value was determined as 71.3%.
For the molecule H[Aib]QGTFTSDYSKYLDEKRQKEFVNWLLAQC (bridge 16-20; not fully specified (C-terminus)) [triple agonist of SEQ ID NO: 56], in the experiment with human GLP-1 receptor, the “in vitro Activity Compared to Native Peptide (%), vs GLP-1” value was 57.9%. For the same molecule, the “in vitro Activity Compared to Native Peptide (%), vs GIP” value with human GIP receptor worked out at 0.8%. Besides, the “in vitro Activity Compared to Native Peptide (%), vs Glucagon” value with human GCG receptor was 4.9%.
The corresponding values for [Acetyl(2-(4-imidazolyl))][Aib]QGTFTSDCSKYLDERAAQDFVQWLLDGGPSSGAPPPS (not fully specified (C-terminus)) [triple agonist of SEQ ID NO: 63] are 15.3%, less than 0.1% and less than 0.1%.
The corresponding values for H[Aib]QGTFTSDYSIAMDEIHQKDFVNWLLNTC (bridge 16-20; not fully specified (C-terminus)) [triple agonist of SEQ ID NO: 57] are 11.7%, 0.3% and less than 0.1%.
With [Acetyl(2-(4-imidazolyl))][Aib]QGTFTSDYSIAMDEKHCKDFVNWLLNTK (bridge 16-20; not fully specified (C-terminus)) [triple agonist of SEQ ID NO: 60], the “in vitro Activity Compared to Native Peptide (%), vs GLP-1” value with human GLP-1 receptor was 106%. The “in vitro Activity Compared to Native Peptide (%), vs GIP” value with human GIP receptor is 8.2%. Moreover, the “in vitro Activity Compared to Native Peptide (%), vs Glucagon” value with human GCG receptor was less than 0.1%.
The corresponding values for H[Aib]QGTFTSDYSIAMDEIHQKDFVNWLLAQC (bridge 16-20; not fully specified (C-terminus)) [triple agonist of SEQ ID NO: 55] are 27.1%, 2.4% and 0.7%.

B1: triple agonist of SEQ ID NO: 6 (peptide)
peptide: HXQGTFTSDVSSYLDGQAAKEFVAWLLKGC
HELM: PEPTIDE1{H.[Aib].Q.G.T.F.T.S.D.V.S.S.Y.L.D.G.Q.A.A.K.E.F.V.A.W.L.L.K.G.C.[am]}$$$$V2.0; N-terminus assumed
SMILES: CC(C)C[C@H](NC(=O)[C@H](Cc1c[nH]c2ccccc12)NC(=O)[C@H](C)NC(=O)[C@@H](NC(=O)[C@H](Cc1ccccc1)NC(=O)[C@H](CCC(=O)O)NC(=O)[C@H](CCCCN)NC(=O)[C@H](C)NC(=O)[C@H](C)NC(=O)[C@H](CCC(N)=O)NC(=O)CNC(=O)[C@H](CC(=O)O)NC(=O)[C@H](CC(C)C)NC(=O)[C@H](Cc1ccc(O)cc1)NC(=O)[C@H](CO)NC(=O)[C@H](CO)NC(=O)[C@@H](NC(=O)[C@H](CC(=O)O)NC(=O)[C@H](CO)NC(=O)[C@@H](NC(=O)[C@H](Cc1ccccc1)NC(=O)[C@@H](NC(=O)CNC(=O)[C@H](CCC(N)=O)NC(=O)C(C)(C)NC(=O)[C@@H](N)Cc1c[nH]cn1)[C@@H](C)O)[C@@H](C)O)C(C)C)C(C)C)C(=O)N[C@@H](CC(C)C)C(=O)N[C@@H](CCCCN)C(=O)NCC(=O)N[C@@H](CS)C(N)=O
In the case of B1, the “in vitro Activity Compared to Native Peptide (%), vs GLP-1” value with human GLP-1 receptor was determined as 17%. In addition, the “in vitro Activity Compared to Native Peptide (%), vs GIP” value with human GIP receptor is less than 0.1%. Also, the “in vitro Activity Compared to Native Peptide (%), vs Glucagon” value with human GCG receptor is less than 0.1%.
Y[Aib]QGTFTSDYSKYLDECAAKEFVQWLLDHHPSSGQPPPS (bridge 16-20; not fully specified (C-terminus)) [triple agonist of SEQ ID NO: 64]: the “in vitro Activity Compared to Native Peptide (%), vs GLP-1” value in the experiment with human GLP-1 receptor was 64.6%. In the experiment with human GIP receptor, the “in vitro Activity Compared to Native Peptide (%), vs GIP” value is 92.9%. The “in vitro Activity Compared to Native Peptide (%), vs Glucagon” value with human GCG receptor was 60.1%.
The corresponding values for Y[Aib]QGTFTSDYSKYLDECAAKDFVQWLLDHHPSSGQPPPS (bridge 16-20; not fully specified (C-terminus)) [triple agonist of SEQ ID NO: 67] are 28.5%, 39.8% and 46.2%.
H[Aib]EGTFTSDYSIAMDEIHQKDFVNWLLAQC (bridge 16-20; not fully specified (C-terminus)) [triple agonist of SEQ ID NO: 53]: the “in vitro Activity Compared to Native Peptide (%), vs GLP-1” value with human GLP-1 receptor amounted to 161%. In addition, the “in vitro Activity Compared to Native Peptide (%), vs GIP” value with human GIP receptor amounted to 1.3%. The “in vitro Activity Compared to Native Peptide (%), vs Glucagon” value with human GCG receptor turned out to be 8.4%.
Y[Aib]QGTFTSDYSKCLDERAAKEFVQWLLDHHPSSGQPPPS (bridge 16-20; not fully specified (C-terminus)) [triple agonist of SEQ ID NO: 69]: the “in vitro Activity Compared to Native Peptide (%), vs GLP-1” value with human GLP-1 receptor was found to be 24.3%. Besides, the “in vitro Activity Compared to Native Peptide (%), vs GIP” value with human GIP receptor was 62.8%. For the same molecule, the “in vitro Activity Compared to Native Peptide (%), vs Glucagon” value with human GCG receptor was 9.6%.
The corresponding values for [Acetyl(2-(4-imidazolyl))][Aib]QGTFTSDYSICMDEKHQKDFVNWLLNTK (bridge 16-20; not fully specified (C-terminus)) [triple agonist of SEQ ID NO: 59] are 40.3%, 4% and less than 0.1%.
